Drawing on publication PMC2622761, this text covers percent of input detected in the pull-down for one substance.

The target in this assay is GST-PfMTIP (P. falciparum (3D7)) (UniProt Q8I4W8). Nature of the assay: pull-down; GST or GST-MTIP coupled to glutathione-Sepharose 4B; 25 µg His-tagged Rab protein incubated overnight at 4°C; four washes in PBS (0.1% Triton X-100); detected by anti-His immunoblot. (A western blot detects proteins with antibodies after separation by electrophoresis.)

In turn, PfRab11A-His (natural protein) came in with a percent of input detected in the pull-down of 5%.
